Results published in patent US20240228986A1, “ENGINEERED CELLS, ENZYMES, AND METHODS FOR PRODUCING CANNABINOIDS” (priority 2021, published 2024).

B1: MPT4: membrane-bound prenyltransferase, SEQ ID NO: 2, comparator (protein)
chain: MSDNSIATKILNFGHTCWKLQRPYVVKGMISIACGLFGRELFNNRHLFSWGLMWKAFFALVPILSFNFFAAIMNQIYDVDIDRINKPDLPLVSGEMSIETAWILSIIVALTGLIVTIKLKSAPLFVFIYIFGIFAGFAYSVPPIRWKQYPFTNFLITISSHVGLAFTSYSATTSALGLPFVWRPAFSFIIAFMTVMGMTIAFAKDISDIEGDAKYGVSTVATKLGARNMTFVVSGVLLLNYLVSISIGIIWPQVFKSNIMILSHAILAFCLIFQTRELALANYASAPSRQFFEFIWLLYYAEYFVYVFI
modifications: MPT4 (membrane-bound prenyltransferase)
B2: GPS2-F11-MPT4: fusion protein, SEQ ID NO: 21 (protein)
chain: MKDVSLSSFDAHDLDLDKFPEVVRDRLTQFLDAQELTIADIGAPVTDAVAHLRSFVLNGGKRIRPLYAWAGFLAAQGHKNSSEKLESVLDAAASLEFIQACALIHDDIIDSSDTRRGAPTVHRAVEADHRANNFEGDPEHFGVSVSILAGDMALVWAEDMLQDSGLSAEALARTRDAWRGMRTEVIGGQLLDIYLESHANESVELADSVNRFKTAAYTIARPLHLGASIAGGSPQLIDALLHYGHDIGIAFQLRDDLLGVFGDPAITGKPAGDDIREGKRTVLLALALQRADKQSPEAATAIRAGVGKVTSPEDIAVITEHIRATGAEEEVEQRISQLTESGLAHLDDVDIPDEVRAQLRALAIRSTERRMGGAEAAAKEAAAKAGGSGGGSGGGGSGGSGGGGSGGGGSMSDNSIATKILNFGHTCWKLQRPYVVKGMISIACGLFGRELFNNRHLFSWGLMWKAFFALVPILSFNFFAAIMNQIYDVDIDRINKPDLPLVSGEMSIETAWILSIIVALTGLIVTIKLKSAPLFVFIYIFGIFAGFAYSVPPIRWKQYPFTNFLITISSHVGLAFTSYSATTSALGLPFVWRPAFSFIIAFMTVMGMTIAFAKDISDIEGDAKYGVSTVATKLGARNMTFVVSGVLLLNYLVSISIGIIWPQVFKSNIMILSHAILAFCLIFQTRELALANYASAPSRQFFEFIWLLYYAEYFVYVFI
modifications: GPS2-F11-MPT4, geranyl diphosphate synthase, membrane-bound prenyltransferase fusion protein
B3: GPS3-F11-MPT4: fusion protein, SEQ ID NO: 20 (protein)
chain: MQLLNPPQKGKKAVEFDFNKYMDSKAMTVNEALNKAIPLRYPQKIYESMRYSLLAGGKRVRPVLCIAACELVGGTEELAIPTACAIEMIHTMSLMHDDLPCIDNDDLRRGKPTNHKIFGEDTAVTAGNALHSYAFEHIAVSTSKTVGADRILRMVSELGRATGSEGVMGGQMVDIASEGDPSIDLQTLEWIHIHKTAMLLECSVVCGAIIGGASEIVIERARRYARCVGLLFQVVDDILDVTKSSDELGKTAGKDLISDKATYPKLMGLEKAKEFSDELLNRAKGELSCFDPVKAAPLLGLADYVAFRQNGGAEAAAKEAAAKAGGSGGGSGGGGSGGSGGGGSGGGGSMSDNSIATKILNFGHTCWKLQRPYVVKGMISIACGLFGRELFNNRHLFSWGLMWKAFFALVPILSFNFFAAIMNQIYDVDIDRINKPDLPLVSGEMSIETAWILSIIVALTGLIVTIKLKSAPLFVFIYIFGIFAGFAYSVPPIRWKQYPFTNFLITISSHVGLAFTSYSATTSALGLPFVWRPAFSFIIAFMTVMGMTIAFAKDISDIEGDAKYGVSTVATKLGARNMTFVVSGVLLLNYLVSISIGIIWPQVFKSNIMILSHAILAFCLIFQTRELALANYASAPSRQFFEFIWLLYYAEYFVYVFI
modifications: GPS3-F11-MPT4, geranyl diphosphate synthase, membrane-bound prenyltransferase fusion protein

What was measured:
Type in all cases: cell-based, Yarrowia
olivetolic acid [1] = experiment: Unfused rMPTs and APTs, CBGA/FCBGA formation in vivo assay (Example 4); settings: 2 mM olivetolic acid, 48 h quench
Experimental: (§1) As described below, plasmids pCL-SE-0380 (MPT4), pCL-SE-0337.MPT4, pCL-SE-0338.APT73.74, and pCL-SE-0338.APT73.77 were transformed into strain sCL-SE-0128. Multiple colonies per transformation were precultured for 48 h in YNB containing glucose (2%), casamino acids (0.5%), and MES (100 mM pH 6.5). Pre-culture was used to inoculate assay medium comprised of YNB containing glucose (2%), casamino acids (0.5%), MES (100 mM pH 6.5), and olivetolic acid or divarinic acid (2 mM). Cultures were quenched with equal volume of ethanol after 48 h total growth and assayed for CBG(V)A and FCBG(V)A. Averages and standard deviations were calculated from replicates.
(§2) Overnight YPD (10 g/L yeast extract, 20 g/L peptone, 2% dextrose) cultures were inoculated from glycerol stocks of the appropriate strain and grown at 30° C. with 250 rpm shaking. Once cultures had reached an OD600 of 4-6, cultures were centrifuged at 500×g for 5 min, supernatants were discarded, and cell pellets were resuspended in equal volume of water. Resuspended cells were centrifuged at 500×g for 5 min, supernatants were discarded, and cells were resuspended in a volume (75 μL×OD×Vculture) of transformation cocktail (45% PEG-400, 0.1 M LiAc, 0.1 M DTT, and 25 ug/100 μL SS Salmon Sperm DNA). For each transformation, >1 μg of plasmid DNA was added to 55 μL cells/transformation cocktail and vortexed for 2 s. Transformations were incubated at 39° C. for 1 h with 250 rpm shaking. Transformations were resuspended in 750 μL YPD with 1 M sorbitol and recovered at 30° C. overnight with 250 rpm shaking. The next day, transformations were centrifuged at 500×g for 5 min, supernatants were discarded, and cell pellets were resuspended in 750 YPD. Resuspended transformations were plated on YPD with appropriate selection or YNBD (6.71 g/L yeast nitrogen base+nitrogen, 0.5% casamino acids, 2% dextrose) agar plates and grown at 30° C. for 2 days. Individual colonies were patched onto YPD plates with appropriate selection or YNBD plates and grown at 30° C. overnight. Patches were used to inoculate 0.5 mL YPD with appropriate selection or YNBD precultures in 96 w blocks and grown at 30° C. for 24-48 h with 1000 rpm shaking. For assays, 0.5 mL YPD with appropriate selection or YNBD cultures containing substrate were inoculated with 2 μL from precultures and grown at 30° C. for 2-4 days with 1000 rpm shaking with 2% glucose added every 24 h. Assay cultures were quenched by addition of 0.5 mL ethanol with 0.2% formic acid and 0.5 mg/mL pentyl-benzoic acid. Precipitates were pelleted by centrifuging at 4600×g for 10 min and then 200 μL was transferred to fresh plates, sealed, and analyzed via HPLC.
(§3) All samples were quenched with equal volume of EtOH containing 0.2 mg/mL internal standard (3,5-Diisopropyl-2-hydroxybenzoic acid CAS #2215-21-6) centrifuged, and clarified solutions were analyzed by HPLC-MS
(§4) • Column: 2.1×50 mm COSMOCORE PBr (Nacalai USA, Inc.) • Mobile Phase: A; 0.1% formic acid in water, B; 0.1% formic acid in acetonitrile • Flow: 0.45 mL/min • Temp: % 50 Celsius • Gradient: 20%B at 0 min, 70%B at 2.3 min, 89% B at 4.2 min, 20% B at 4.3 min, 20%B at 6 min

divarinic acid [2] = experiment: Unfused rMPTs and APTs, CBGVA/FCBGVA formation in vivo assay (Example 4); settings: 2 mM divarinic acid, 2% glucose, 48 hour quench; strain sCL-SE-0128
Experimental: as §1, §2, §3, §4

olivetolic acid [3] = experiment: Linkers for GPS1.1-MPT4 fusions, in vivo assay (Example 6); settings: 1 mM olivetolic acid, 72 h quench
Experimental: (§5) As described in detail below, plasmids pCL-SE-0380 (MPT4), pCL-SE-0406, pCL-SE-0435, and pCL-SE-0437 were transformed into strain sCL-SE-0128. Four separate colonies per transformation were precultured for 24 h in YNB containing glycerol (2%), casamino acids (0.5%), and MES (100 mM pH 6.5). Pre-culture was used to inoculate assay medium comprised of YNB containing glycerol (2%), casamino acids (0.5%), MES (100 mM pH 6.5), and olivetolic acid (1 mM). Cultures were quenched after 72 h total growth by mixing with equal volume of EtOH. Enzymes produced CBGA and FCBGA. Averages and standard deviations were calculated from replicates.
However, sCL-SE-0128 expresses HMGR and GPS1.1 to increase intracellular GPP levels for prenylation of OA to CBGA. The plasmids that were transformed contain either a gene expressing a prenyl-transferase (pCL-SE-0380 (MPT4)) or a gene expressing a fusion between GPS1.1 and a prenyl-transferase with different linker sequences.
as §2, §3, §4

divarinic acid [4] = experiment: MPT fusions with GPS1.1 vs unfused MPTs, DVA feed (Example 9, Table 11); settings: 2 mM divarinic acid, 2% glucose, quenched after 48 h; strain sCL-SE-0128
Experimental: as §1, with “plasmids pCL-SE-0406, pCL-SE-0664, pCL-SE-0663, pCL-SE-0662,” for “plasmids”, “pCL-SE-0337.MPT21,” for “pCL-SE-0337.MPT4, pCL-SE-0338.APT73.74, and pCL-SE-0338.APT73.77”, “and” for “and olivetolic acid or”, “quenched” for “quenched with equal volume of ethanol”, “CBGVA” for “CBG(V)A”, “FCBGVA.” for “FCBG(V)A.”
as §2, §3, §4

olivetolic acid [5] = experiment: MPT fusions with GPS1.1 vs unfused MPTs, OA feed (Example 8, Table 9); settings: 2 mM olivetolic acid, 48 h quench
Experimental: as §1, with “plasmids pCL-SE-0406, pCL-SE-0664, pCL-SE-0663, pCL-SE-0662,” for “plasmids”, “pCL-SE-0337.MPT21, pCL-SE-0337.MPT26,” for “pCL-SE-0337.MPT4, pCL-SE-0338.APT73.74,”, “pCL-SE-0337.MPT31” for “pCL-SE-0338.APT73.77”, “acid” for “acid or divarinic acid”, “CBGA” for “CBG(V)A”, “FCBGA.” for “FCBG(V)A.”
as §2, §3, §4

olivetolic acid [6] = experiment: Fusions of different GPSs with MPT4, in vivo assay (Example 7); settings: 1 mM olivetolic acid, 72 h quench; for CBGA / FCBGA: 2% glycerol, strain sCL-SE-0128; for CBGA/FCBGA: product ratio
Experimental: as §5, with “described” for “described in detail”, “pCL-SE-0337, 0406, 0452” for “pCL-SE-0380 (MPT4), pCL-SE-0406, pCL-SE-0435,”, “0453” for “pCL-SE-0437”, “Multiple” for “Four separate”, “and assayed for” for “by mixing with equal volume of EtOH. Enzymes produced”, “F-CBGA.” for “FCBGA.”
However, sCL-SE-0128 expresses HMGR and GPS1.1 to increase intracellular GPP levels for prenylation of OA to CBGA. The plasmids that were transformed contain a gene expressing a fusion between two different GPSs and a prenyl-transferase. The same linker is used for all constructs. […] Additionally, as illustrated by GPS2 (pCL-SE-0453), certain GPS-MPT combinations result in very high CBGA/ FCBGA ratios.
as §2, §3, §4

[7] = 2% glycerol, strain sCL-SE-0128

Molecule	CBGA (olivetolic acid [1]; 2% glucose, strain sCL-SE-0128)	FCBGA (olivetolic acid [1]; 2% glucose, strain sCL-SE-0128)	CBGA/FCB (olivetolic acid [1]; product ratio)	CBGVA (divarinic acid [2])	FCBGVA (divarinic acid [2])	CBGA (olivetolic acid [3]; [7])	FCBGA (olivetolic acid [3]; [7])	CBGA/FCBGA (olivetolic acid [3]; product ratio)	CBGVA (divarinic acid [4])	FCBGVA (divarinic acid [4])	CBGA (olivetolic acid [5]; 2% glucose, strain sCL-SE-0128)	FCBGA (olivetolic acid [5]; 2% glucose, strain sCL-SE-0128)	CBGA/FCBGA (olivetolic acid [5]; product ratio)	CBGA (olivetolic acid [6])	FCBGA (olivetolic acid [6])	CBGA/FCBGA (olivetolic acid [6])
B1	123 ± 13 µM	23 ± 2 µM	5.3	19 ± 2 µM	0 ± 0 µM	230 ± 15 µM	51 ± 1 µM	4.5	19 ± 2 µM	0 ± 0 µM	123 ± 13 µM	23 ± 2 µM	5.3	–	–	–
B2	–	–	–	–	–	–	–	–	–	–	–	–	–	282 ± 69 µM	11 ± 2 µM	26.8
B3	–	–	–	–	–	–	–	–	–	–	–	–	–	255 ± 22 µM	41 ± 3 µM	6.2
